# Laboratory results: article PMC10174534
# Molecular target: SARS-CoV-2 ΔN135 spike (S) protein, soluble prefusion-stabilised ectodomain trimer (SARS-CoV-2) (UniProt P0DTC2)
# Experiment: SEC-MALS
substance,measurement,value
"SARS-CoV-2 ΔN135 spike (S) protein, soluble prefusion-stabilised ectodomain trimer (from UniProt P0DTC2 22-1208) (natural protein)",stoichiometry N,3
